From publication PMC4919432

Experiments:
[1] = target: Tel1 (yeast (budding yeast)) (UniProt P38110); experiment: SEC; Tel1 on Superose 6 Increase 5/150 GL, 0.1 ml/min; 50 mM HEPES-KOH pH 7.4, 200 mM KCl, 10% glycerol, 0.1% Tween 20, 0.02% C12E10, 1 mM EDTA, 3 mM DTT; size against Bio-Rad gel filtration standards
[2] = target: Tel1 (yeast (budding yeast)) (UniProt P38110); experiment: negative stain electron microscopy, single-particle reconstruction; 20 nM Tel1 in 50 mM HEPES pH 7.4, 150 mM NaCl, 5% glycerol, 1 mM EDTA, 1 mM DTT; 2% uranyl acetate; C2 symmetry applied; 21 Å (FSC 0.5)
[3] = target: Tel1 (yeast (budding yeast)) (UniProt P38110); experiment: cryo-EM structure; 20 nM Tel1 in 50 mM HEPES-KOH pH 7.4, 210 mM KCl, 1% glycerol, 0.02% Tween 20, 0.002% Nonidet P-40, 1 mM EDTA, 0.5 mM EGTA, 1 mM DTT, 0.5 mM MgCl2; holey carbon grids with a thin carbon layer; 19.2 Å
[4] = target: Mec1·Ddc2 complex (yeast (budding yeast)) (UniProt P38111); experiment: negative stain electron microscopy, single-particle reconstruction; 70 nM Mec1·Ddc2 in 30 mM HEPES pH 7.4, 200 mM NaCl, 5% glycerol, 0.5 mM EDTA, 1 mM DTT; 2% uranyl acetate; C2 symmetry applied; 22.5 Å
[5] = target: Mec1·Ddc2 complex (yeast (budding yeast)) (UniProt P38111); experiment: SEC; Mec1·Ddc2 on Superose 6 HR 10/30, 0.3 ml/min; 50 mM HEPES-KOH pH 7.4, 200 mM KCl, 10% glycerol, 0.1% Tween 20, 0.01% Nonidet P-40, 1 mM EDTA, 1 mM EGTA, 2 mM DTT; size against Bio-Rad gel filtration standards; peak fractions on SDS-PAGE

Row | stoichiometry N [1] | stoichiometry N [2] | stoichiometry N [3] | percent of particles of the size of the dimer [4] | stoichiometry N [4] | stoichiometry N [5] | Substance
1 | 2 | 2 | 2 | – | – | – | Tel1, P38110 1-2787
2 | – | – | – | 81% | 2 | 2 | Mec1·Ddc2 complex, P38111 1-2368; Q04377 1-747
